In patent US20200308299A1 (NATIONAL UNIVERSITY CORPORATION KOCHI UNIVERSITY, published 2020):

Legend:
[1] = biological target: T1, recombinant human Glypican-1 protein (R&D Systems, CF, 4519-GP-050) (human, UniProt P35052 24-530); assay: ELISA on plate-coated recombinant human GPC1
T1 construct: Bought protein; also called recombinant human GPC1
T1 sequence: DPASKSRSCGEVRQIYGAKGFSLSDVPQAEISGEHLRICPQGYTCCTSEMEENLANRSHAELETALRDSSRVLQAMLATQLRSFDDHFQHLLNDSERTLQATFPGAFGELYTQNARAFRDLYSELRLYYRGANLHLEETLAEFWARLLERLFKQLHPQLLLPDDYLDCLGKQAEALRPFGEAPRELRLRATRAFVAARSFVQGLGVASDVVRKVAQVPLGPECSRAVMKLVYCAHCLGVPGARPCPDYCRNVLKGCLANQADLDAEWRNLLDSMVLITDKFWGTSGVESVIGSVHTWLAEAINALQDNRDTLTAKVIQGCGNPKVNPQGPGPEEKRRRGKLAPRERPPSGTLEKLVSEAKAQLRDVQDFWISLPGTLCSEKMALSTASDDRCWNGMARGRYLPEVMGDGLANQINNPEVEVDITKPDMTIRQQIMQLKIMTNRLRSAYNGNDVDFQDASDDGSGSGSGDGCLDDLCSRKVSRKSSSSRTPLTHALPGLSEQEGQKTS

[2] = biological target: T2, human Glypican-1 (human, UniProt P35052 24-530, limits assumed); assay: phage scFv panning, ELISA on immobilised human GPC1, cell-ELISA and flow cytometry on human GPC1 transformants and TE14 (Example 1)
T2 construct: also called human GPC1
T2 sequence: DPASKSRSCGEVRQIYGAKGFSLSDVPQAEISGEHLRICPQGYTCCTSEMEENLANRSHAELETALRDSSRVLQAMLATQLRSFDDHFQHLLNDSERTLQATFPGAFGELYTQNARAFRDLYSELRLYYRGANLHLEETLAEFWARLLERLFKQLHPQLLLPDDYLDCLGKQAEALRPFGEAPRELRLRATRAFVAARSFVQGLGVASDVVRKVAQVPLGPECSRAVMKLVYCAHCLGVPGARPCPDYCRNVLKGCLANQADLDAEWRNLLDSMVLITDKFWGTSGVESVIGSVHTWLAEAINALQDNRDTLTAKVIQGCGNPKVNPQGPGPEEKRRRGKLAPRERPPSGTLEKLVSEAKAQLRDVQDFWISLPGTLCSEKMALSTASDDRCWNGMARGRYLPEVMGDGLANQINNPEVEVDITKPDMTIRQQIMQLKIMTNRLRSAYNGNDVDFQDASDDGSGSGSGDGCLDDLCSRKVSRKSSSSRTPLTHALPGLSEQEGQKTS

| Binder | binding result [1] | binding result [2] |
| --- | --- | --- |
| anti-Glypican-1 antibody clone K090-01a033 (antibody, mouse IgG2a, kappa, V domains shown, Selected as scFv on phage; also called clone 01a033; anti-GPC1 monoclonal antibody (01a033)) VH: QVQLKQSGPELVKPGASVKISCKASGYSFTGYYMHWVKQSPEKSLEWIGEINPSTGDTTYNQKFKAKATLTVDKSSSTAYMQLKSLTSEDSAVYYCAREKRDDGVFAYWGQGTLVTVSS VL: DIVMSQSPKSMSMSVGERVALSCKASENVGTYVSWYQQKPEQSPKLLIYGASNRYTGVPDRFTGSGSATDFTLTISSVQAEDLADYYCGQSYSYPLTFGAGTKLELKR | binds | binds |
| anti-Glypican-1 antibody clone K090-01a002 (antibody, mouse IgG2a, kappa, V domains shown, Selected as scFv on phage) VH: EVQLQQSGPELVKPGASVKISCKSSGYSFTRYYMHWVKHSPEKSLEWIGEINPSTGDTTYNQKFKAKATLTVDKSSSTAYMQLKSLTSEDSAVYYCAREKRDDGVLAYWGQGTLVTVSS VL: DIQMTQSPKFLPVSAGDRVTMTCKASQSVGNNVAWYQQKPGQSPKLLIYYASNRYTGVPDRFTGSGSGTDFTFTISSVQVEDLAVYFCQQHYSSPLTFGAGTKLELKR | – | binds |
| anti-Glypican-1 antibody clone K090-01a021 (antibody, mouse IgG2a, kappa, V domains shown, Selected as scFv on phage) VH: QVQLKQSGPELVKPGASVKISCKASGYSFTGYYMHWVKQSPEKSLEWIGEINPSTGGTTYNQKFKAKATLTVDKSSSTAYMQLKSLTSEDSAVYYCAREKRDDGVFAYWGQGTLVTVSS VL: SIVMTQTPKFLPVSAGDRVTMTCKASQSVGNNVAWYQQKPGQSPKLLIYYASNRYTGVPDRFTGSGSGTDFPFTISSVQVEDLAVYFCQQHYSSPLTFGAGTKLELKR | – | binds |
| anti-Glypican-1 antibody clone K090-01a030 (antibody, mouse IgG2a, kappa, V domains shown, Selected as scFv on phage) VH: QVQLQQSGAELVRPGTSVKMSCKAAGYTFTNYWIGWVKQRPGHGLEWIGDIYPGGGYTHYNEKFKGKATLTADTSSSTAYMQLSSLTSEDSAIYYCARERVYYDGSRYFDVWGAGTTVTVSS VL: DIKMTQSPKFLPVSAGDRVTMTCKASQSVGNNVAWYQQKPGQSPKLLIYYASNRYTGVPDRFTGSGSGTDFTFTISSVQVEDLAVYFCQQHYSSPWTFGGGTKLEIKR | – | binds |
| anti-Glypican-1 antibody clone K090-01a017 (antibody, mouse IgG2a, kappa, V domains shown, Selected as scFv on phage) VH: EVQLQQSGGELVRPGTSVKMSCKAAGYTFTNYWIGWVKQRPGHGLEWIGDLYPGGGYTHYNEKFKGKATLTADTSSSTAYMQLSSLTSEDSAIYYCARERVYFDGSRYFDVWGAGTTVTVSS VL: SIVMTQTPKFLPVSAGDRVTMTCKASQSVGNNVAWYQQKPGQSPKLLIYYASNRYTGVPDRFTGSGSGTDFTFTISSVQVEDLAVYFCQQHYSSPWTFGGGTKLEIKR | – | binds |
| anti-Glypican-1 antibody clone K090-01a026 (antibody, mouse IgG2a, kappa, V domains shown, Selected as scFv on phage) VH: QVHLQQSGAELVRPGTSVKMSCKAAGYTFTNYWIGWVKQRPGHGLEWIGDIYPGGGYTHYNEKFKGKATLTADTSSSTAYMQLSSLTSEDSAIYYCARERVYYDGSRFFDVWGAGTTVTVSS VL: DIVMSQSPKFLPVSAGDRVTMTCKASQSVGNNVAWYQQKPGQSPKLLIYYASNRYTGVPDRFTGSGSGTDFTFTISSVQVEDLAVYFCQQHYSSPWTFGGGTKLEIKR | – | binds |
| anti-Glypican-1 antibody clone K090-01a009 (antibody, mouse IgG2a, kappa, V domains shown, Selected as scFv on phage) VH: EVQLQQSGPELVKPGASVEISCKASGYSFTGYFMNWVKQSQGKSLEWIGRINPDNGDIFYNQKFKGKATLTVDKSSSTAHMELRSLTSEDSAVYYCARSWNWYFDVWGAGTTVTVSS VL: DIQMTQSPASLSASVGETVTITCRASENIYSYLAWYQQKQGKSPQLLVYNAKTLAEGVPSRFSGSGSGTQFSLKINSLQPEDFGSYYCQHHYGTPYTFGSGTKLEIKR | – | binds |
| anti-Glypican-1 antibody clone K090-01a042 (antibody, mouse IgG2a, kappa, V domains shown, Selected as scFv on phage) VH: QVQLQQPGAELAKPGASVKMSCKASGYTFTRYWMHWVKQRPGQGLEWIGYINPSSGYTEYNQKFKDKATLTADKSSSTAYMQLSSLTSEDSAVYYCVRLGDYSYYFDYWGQGTTLTVSS VL: DVVMTQTPLSLPVSLGDQASISCRSSQSIVHSNGNTYLEWYLQKPGQSPKLLIYKVSNRFSGVPDRFSGSGSGTDFTLKISRVEAEDLGVYYCFQGSHVPWTFGGGTKLELKR | – | binds |
| anti-Glypican-1 antibody clone K090-02a002 (antibody, mouse IgG2a, kappa, V domains shown, Selected as scFv on phage) VH: EVKLVESGGGLVKPGGSRKLSCAASGFTFSDYGMHWVRQAPEKGLEWVAYISSGSSTIYYADTVKGRFTISRDNAKNTLFLQMTSLRSEDTAMYYCARHSYYSYDVGGDYVMDYWGQGTSVTVSS VL: DIVMSQSPKFMSTSVGDRVSITCKASQDVGTAVAWYQQKPGQSPKLLIYWASTRHTGVPDRFTGSGSGTDFTLTISNVQSEDLADYFCQQYSSYPLTFGAGTKLEIKR | – | binds |
| anti-Glypican-1 antibody clone K090-02a010 (antibody, mouse IgG2a, kappa, V domains shown, Selected as scFv on phage) VH: EVKLVESGGGLVKPGGSRKLSCAASGFTFSDYGMHWVRQAPEKGLEWVAYINSGSSTIYYADTVKGRFTISRDNAKNTLFLQMTSLRSGDTAMYYCARHSYYSYDVGGDYVMDYWGQGTSVTVSS VL: DIVLTQSPKFMSTSVGDRVSITCKASQDVGTAVAWYQQKPGQSPKLLIYWASTRHTGVPDRFTGSGSGTDFTLTISNVQSEDLADYFCQQYSSYPLTFGAGTKLEIKR | – | binds |
| anti-Glypican-1 antibody clone K090-02a006 (antibody, mouse IgG2a, kappa, V domains shown, Selected as scFv on phage) VH: EVQLQQSGAELVKPGASVKISCRASGYSFTGYNMNWVKQSHGKSLEWIGNINPYYGTTNYNQKFKGKATLTVDKSSSTAYMQLNSLTSEDSAVYYCASDGYYGAMDYWGQGTSVTVSS VL: DIKMTQSPKFMSTSVGDRVSVTCKASQNVGTYVAWYQQKPGQSPKALIYSASYRYSGVPDRFTGTGSGTDFTLTISNVQSEDLAEYFCQQYYNYPLTFGAGTKLELKR | – | binds |
| anti-Glypican-1 antibody clone K090-02a014 (antibody, mouse IgG2a, kappa, V domains shown, Selected as scFv on phage) VH: EVQLQQSGPELVKPGASVKISCKASGYSFTGYYIHWVKQSPEKSLEWIGEINPSTGDITYNQKFKAKATLTVDKSSSTAYMQLKSLTSDDSAVYYCARERNYDRFAYWGQGTLVTVSS VL: SIVMTQTPALMAASPGEKVTITCSVSSSISSSNLHWYQQKSETSPKPWIYGTSNLASGVPVRFSGSGSGTSYSLTISSMEAEDAATYYCQQWSSYPLTFGAGTKLEIKR | – | binds |
| anti-Glypican-1 antibody clone K090-02a022 (antibody, mouse IgG2a, kappa, V domains shown, Selected as scFv on phage) VH: QVQLQQPGPELVKPGASVKMSCKASGYTFTDYYMNWVKQSHGKSLEWIGRVNPSNGGTSYNQKFKGKATLTVDKSLSTAYMQLNSLTSEDSAVYYCARSGENYYAMDYWGQGTSVTVSS VL: DIQMTQSPASLSASVGETVTITCRASENIYSYLAWYQQKQGKSPQLLVYNGKTLAEGVSSRFSGSGSGTQFSLKINSLQPEDFGSYYCQNHYGVPWTFGGGTKLEIKR | – | binds |
| anti-Glypican-1 antibody clone K090-02a034 (antibody, mouse IgG2a, kappa, V domains shown, Selected as scFv on phage) VH: EVQLQQSGPELVKPGASVKISCKASGYSFTGYYMHWVKQSPEKSLEWIGEINPSTGDTTYNQKFKAKATLTVDKSSSTAYIQLKSLTSEDSAVYYCARERNYDRFAYWGQGTLVTVSS VL: QIVLSQSPAIMSASPGEKVTMTCSASSSVSYMYWYQQKPGSSPRLLIYDTSNLASGVPVRFSGSGSGTSYSLTISRMEAEDAATYYCQQWSSYPLTFGAGTKLELKR | – | binds |
| anti-Glypican-1 antibody clone K090-02a035 (antibody, mouse IgG2a, kappa, V domains shown, Selected as scFv on phage) VH: QVQLQQSGAELVKPGASVKLSCKTSGYTFTSYWMHWVKQRPGQGLEWIGNIDPSDSETHYNQKFKDKATLTVDKSSSTAYMQLSGLTSEDSAVYYCARNLGYWGQGTSVTVSS VL: DIKMTQSPLSLPVSLGDQASISCRSSQSLVHSNGNTYLHWYLQKPGQSPKLLIYKVSNRFSGVPDRFSGSGSGTDFTLKISRVEAEDLGVYFCSQSTHVPYTFGGGTKLEIKR | – | binds |
| anti-Glypican-1 antibody clone K090-01a007 (antibody, mouse IgG2a, kappa, V domains shown, Selected as scFv on phage) VH: QVHLQQSGAELVKPGASVKLSCKASGYTFTSYWMHWVKQRPGQGLEWIGNIDPYDSETHYNQKFKDKATLTVDKSSSTAYMQLSSLTSEDSAVYYCARDSNWGYFDYWGQGTTLTVSS VL: DVVMTQTPLSLPVSLGDQASISCRSSQSLVHSNGNTYLHWYLQKPGQSPKLLIYKVSNRFSGVPDRFSGSGSGTDFTLKISRVEAEDLGVYFCSQSTHVPWTFGGGTKLELKR | – | binds |
| anti-Glypican-1 antibody clone K090-01a016 (antibody, mouse IgG2a, kappa, V domains shown, Selected as scFv on phage) VH: QVHLQQSGPELVKPGASVKISCKASGYTFTDYYINWVKQKPGQGLEWIGYIDPYNDGSKYNEKFKGKATLTSDKSSSTAYMELSSLTSEDSAVYYCARTPYYSFYSYGFYFDYWGQGTTLTVSS VL: DIVLTQSPASLAVSLGQRATISCRASKSVSTSSYSYMHWYQQKPGQPPKLLIKYASYLESGVPARFSGSGSGTDFTLNIHPVEEEDAATYYCQHSREFPLTFGAGTKLELKR | – | binds |
